Positions count from the first letter of the chain named.
B1: Group 62 representative clone F083-349, Fab-PP-type antibody (Fab, V domains shown)
VH: QVQLVQSGAEVRKPGSSVKVSCKASGVIFIKFAISWVRQAPGQGLEWMGGIIPMFGTTNYAQKFQGRVTITADGSTNTVYMELSSLTSEDTAVYYCAKEEGYYYGSGPLDSWGQGTLVTVSS
VL: DIVMTQSPDFLSVSLGERVTINCKSSQTVLNRSNNKNYLAWYQKKPGQPPRLLLYWSSTRESGVPDRFSGSGSETDFALTITNLQAEDLAVYFCQQFYDMPVTFGGGTKLEIK
B2: Group 63 representative clone F083-336, Fab-PP-type antibody (Fab, V domains shown)
VH: QVQLQQSGAEVKQPGSSVKVSCKASGGIFRSNAISWVRQAPGQGLEWMGGIVALFGTANYAQKFQGRVTITADESTSTVYMELSSLRSEDTARYYCARNSGYHISGFYLDYWGQGTLVTVSS
VL: EIVLTQSPSSLSASVGDRVTITCRASQGISNYLAWYQQRPGKVPKLLIYTASTLLSGVPSRFSGGGSGTDYTLTISSLQPEDVATYYCQEYKSVPLTFGPGTKVEIK
B3: Group 57 representative clone F083-103, Fab-PP-type antibody (Fab, V domains shown)
VH: QVQLQQSGADVKKAGSSVKVSCKASGRTFGNYAISWVRQAPGQGLEWMGGITPIFGAANYAQKFQGRVTISADLSTRMVYMDLSSLRSDDTAFYYCAGHPTYHYGSAMDYWGQGTLVTVSS
VL: QSVLTQPPSVSAAPGQKVTITCSGSSSNIGNNYVSWYQQLPGTAPKLLISEGSNRPSGIPDRFSGSKSGTSATLGITGLQTGDEATYYCATWDDSLSVVLFGGGTRLTVLS
B4: Group 59 representative clone F083-351, Fab-PP-type antibody (Fab, V domains shown)
VH: B3 VH with Q5V, T101M
VL: QSVLTQPPSASGTPGQRVSISCFGSRSNVGSSSVNWYQQLPGRAPKLLIQRNDQRPSGVPDRFSGSKSGTSASLAISGLQSDDESTYYCAAWDDSVKSVVFGGGTQLTVLG
B5: Group 80 representative clone F083-373, Fab-PP-type antibody (Fab, V domains shown)
VH: B3 VH with Q5V, A14P, K19R, R77T, H103Y, A107P
VL: EIVLTQSPSSLSASVGDRVTITCRASQSIATYLNWYQQKPGKAPNLLIYAASNLQSGVPSRFSGSGSGTDFTLTISSLQPEDFATYVCLQSYSATLTFGGGTKVEIK
B6: Group 38 representative clone F082-338, Fab-PP-type antibody (Fab, V domains shown)
VH: QVQLQESGAEVKKPGSSVKVSCKASGGPFRSHAISWVRQAAGQGLEWMGGITAVFGTANYAQKFQGRVTITADESTNIVSMELSSLRSEDTAIYYCARSLGYHTQYNGMDVWGQGTTVTVSS
VL: DVVMTQSPSSVSASVGDRVTITCRASQGISSWLAWYQQKPGKAPKLLIYAASSLQSGVPSRFSGSGSGTDFTLTISSLQPEDFATYYCQQANSFPITFGQGTRLEIK
B7: Group 51 representative clone F083-302, Fab-PP-type antibody (Fab, V domains shown)
VH: QVQLVQSGAEVKKPGSSVKVSCEASGATFSSNAFSWVRQAPGQGPEWMGGIITMFRKAEYAQKFQGRVTITAGELGSTAYMEVRSLTFEDTAVYYCARHSGYHLIGYFDSWGQGTLVTVSS
VL: QSVLTQPPSVSAAPGQKVTISCSGTTSNIGNNYVSWYQQLPGAAPKLLIYDNNKRPSGIPDRFSGSKSDTSATLGITGLQTGDEADYYCGTWVSSLSVWVFGGGTKLTVLG
B8: Group 43 representative clone F081-007, Fab-PP-type antibody (Fab, V domains shown)
VH: QVQLQQSGAEVKKPGSSVKVSCKASGGIFRKNAISWVRQAPGQGLEWMGGISAIFGTANYAQKFQGRVTITADESSNTVYMDLSRLRSEDTAIYYCASHPTYHFDKSGYRFDSWGQGTLVTVSS
VL: B7 VL with T25S, T26S, A43T, D69G, V93D, V98A, W99G
B9: Group 58 representative clone F083-307, Fab-PP-type antibody (Fab, V domains shown)
VH: QVQLQQSGADVKKPGSSVKVSCKASGGTFGNYAISWVRQAPGQGLEWMGGITPIFGPANYAQRFQGRVTISADISTRTAYMELSSLRSEDTAIYYCARHPTYYFGSAMEYWGQGTLVTVSS
VL: SYELTQPPSVSVAPGQTATITCGGDRIGTGPVHWYQQRPGRAPVLIIYGSTHRPSGIPERFSGSKSVNTATLSISGVGVGDEADYYCQVWDTSTAQPIVFGGGTKLTVLS

How the values were obtained:
Experiment in all cases: cell-based or functional assay
[1] = target: Influenza virus A/Indonesia/5/2005/PR8-IBCDC-RG2 (H5N1) (Influenza A virus A/Indonesia/5/2005/PR8-IBCDC-RG2 (H5N1))
[2] = target: Influenza virus A/Suita/1/2009pdm (H1N1 2009 pandemic) (Influenza A virus A/Suita/1/2009pdm (H1N1pdm))
[3] = target: Influenza virus A/California/7/2009pdm (H1N1pdm) (Influenza A virus A/California/7/2009pdm (H1N1pdm))
[4] = target: Influenza virus A/Panama/2007/1999 (H3N2) (Influenza A virus A/Panama/2007/1999 (H3N2))
[5] = target: Influenza virus A/Brisbane/59/2007 (H1N1) (Influenza A virus A/Brisbane/59/2007 (H1N1))

| Binder | Neutralizing activity (%) at 100 µg/ml [1] [%] | Neutralizing activity (%) at 250 µg/ml [1] [%] | Neutralizing activity (%) at 100 µg/ml [2] [%] | Neutralizing activity (%) at 250 µg/ml [2] [%] | HI activity [3] [µg/mL] | Neutralizing activity (%) at 100 µg/ml [4] [%] | Neutralizing activity (%) at 250 µg/ml [4] [%] | HI activity [5] [µg/mL] | Neutralizing activity (%) at 100 µg/ml [5] [%] | Neutralizing activity (%) at 250 µg/ml [5] [%] |
| --- | --- | --- | --- | --- | --- | --- | --- | --- | --- | --- |
| B1 | 40.2 | 83.9 | 97.1 | 91.3 | > 160 | 13.7 | -8.9 | > 160 | 92.1 | 92.1 |
| B2 | 98.8 | 100 | 100 | 100 | > 160 | -11 | -8.9 | > 160 | 100 | 100 |
| B3 | 30 | 61.2 | 60.2 | 83.8 | > 160 | 11 | 13.7 | > 160 | 84.2 | 92.1 |
| B4 | -2.7 | 5.4 | 88.5 | 85.6 | > 160 | -6.8 | -6.6 | > 160 | 100 | 100 |
| B5 | -3.3 | 15.4 | 1.9 | 7.7 | > 160 | -6.9 | -21.2 | > 160 | 70.4 | 74.3 |
| B6 | 67.1 | 85.3 | 100 | 97.7 | > 160 | -2.7 | -0.7 | > 160 | 100 | 100 |
| B7 | 72.9 | 85.9 | 100 | 100 | > 160 | 3.4 | -11 | > 160 | 98 | 98 |
| B8 | 97.6 | 98.8 | 100 | 100 | > 160 | 11.6 | 13.7 | > 160 | 100 | 100 |
| B9 | 28.8 | 31.8 | 76.6 | 54.8 | > 160 | -6.8 | 11.6 | > 160 | 100 | 100 |

— patent publication US20160200799A1
